Consider two molecules from paper PMC5982823, “The Pseudokinase Domain of Saccharomyces cerevisiae Tra1 Is Required for Nuclear Localization and Incorporation into the SAGA and NuA4 Complexes” (G3: Genes|Genomes|Genetics, 2018).

Holding throughout (assay): affinity purification with mass spectrometry; tandem affinity purification of TAP-tagged Epl1 or Ada2 from lysates of TRA1 or tra1 Q3 strains (260 mg or 170 mg protein): IgG beads 2 h at 4°, IPP150 (10 mM Tris-HCl pH 8.0, 150 mM NaCl), TEV cleavage, calmodulin beads, EGTA elution; SDS-PAGE, Coomassie Brilliant Blue; bands identified by MALDI mass spectrometry or predicted from mass; band intensity by ImageJ

Assay [1] deals with TAP-tagged Epl1 (S. cerevisiae) (UniProt P43572).
The target of assay [2] is TAP-tagged Ada2 (S. cerevisiae) (UniProt Q02336).
Another assay deals with T1, TAP-tagged Ada2 (S. cerevisiae, UniProt Q02336 1-434).
T1 construct: Ada2, SAGA component, S. cerevisiae; TAP-tagged ADA2; Held on IgG beads, released with TEV protease, then held on calmodulin beads, so part of the TAP tag is cut off during the purification; also called TAP-Ada2; TAP-ADA2; source: S. cerevisiae strain with TAP-tagged ADA2 (bought: Open Biosystems YSC1178-202230655; crossed with CY6582 for the tra1 Q3 strain CY7042), in lysate of cells ground in …
T1 sequence (looked up): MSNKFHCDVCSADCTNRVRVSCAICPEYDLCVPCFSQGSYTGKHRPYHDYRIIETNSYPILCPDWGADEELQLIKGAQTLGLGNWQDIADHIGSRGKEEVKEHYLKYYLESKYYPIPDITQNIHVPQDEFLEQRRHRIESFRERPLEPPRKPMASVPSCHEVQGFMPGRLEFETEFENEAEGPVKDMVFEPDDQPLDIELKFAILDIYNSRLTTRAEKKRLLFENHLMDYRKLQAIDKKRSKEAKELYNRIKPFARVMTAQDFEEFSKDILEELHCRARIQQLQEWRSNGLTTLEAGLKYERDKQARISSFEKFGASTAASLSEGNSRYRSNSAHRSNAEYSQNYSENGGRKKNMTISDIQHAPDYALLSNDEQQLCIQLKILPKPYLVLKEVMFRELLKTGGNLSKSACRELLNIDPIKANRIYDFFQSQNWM
The conditions noted are these: partners not purified.

Sequence of TAP-tagged Epl1 (S. cerevisiae) (P43572 whole entry): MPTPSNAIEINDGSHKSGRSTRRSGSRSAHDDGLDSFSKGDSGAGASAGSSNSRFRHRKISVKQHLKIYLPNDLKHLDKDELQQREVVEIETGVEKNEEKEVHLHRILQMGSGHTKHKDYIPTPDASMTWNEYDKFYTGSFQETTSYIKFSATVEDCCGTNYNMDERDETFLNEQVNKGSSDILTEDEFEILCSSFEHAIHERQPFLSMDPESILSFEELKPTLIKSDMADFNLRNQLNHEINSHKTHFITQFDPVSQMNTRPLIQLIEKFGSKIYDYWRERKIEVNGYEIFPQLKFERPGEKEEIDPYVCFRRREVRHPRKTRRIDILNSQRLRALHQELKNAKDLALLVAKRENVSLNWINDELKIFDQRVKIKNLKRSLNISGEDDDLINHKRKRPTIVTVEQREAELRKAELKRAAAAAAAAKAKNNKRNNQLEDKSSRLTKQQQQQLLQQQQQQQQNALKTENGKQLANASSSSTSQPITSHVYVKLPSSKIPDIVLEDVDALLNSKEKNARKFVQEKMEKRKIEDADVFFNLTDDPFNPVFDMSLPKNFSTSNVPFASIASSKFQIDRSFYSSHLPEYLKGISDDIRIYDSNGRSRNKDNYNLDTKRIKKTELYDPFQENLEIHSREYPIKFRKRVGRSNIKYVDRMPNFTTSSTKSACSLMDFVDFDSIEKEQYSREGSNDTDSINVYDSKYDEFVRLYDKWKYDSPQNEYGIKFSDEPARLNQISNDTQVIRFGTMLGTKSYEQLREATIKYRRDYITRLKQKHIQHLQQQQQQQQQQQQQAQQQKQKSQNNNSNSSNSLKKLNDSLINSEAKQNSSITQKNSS

For the molecule “Tra1 Q3 (R3389Q, R3390Q, R3456Q), P38811 1-3744”, the fold decrease against wild-type Tra1 in assay [1] is 6.7 fold; in assay [2] it was 6.5 fold.

B1: full length Spt20 (natural protein, UniProt P50875 1-604, looked up)
chain: MSANSPTGNDPHVFGIPVNATPSNMGSPGSPVNVPPPMNPAVANVNHPVMRTNSNSNANEGTRTLTREQIQQLQQRQRLLLQQRLLEQQRKQQALQNYEAQFYQMLMTLNKRPKRLYNFVEDADSILKKYEQYLHSFEFHIYENNYKICAPANSRLQQQQKQPELTSDGLILTKNNETLKEFLEYVARGRIPDAIMEVLRDCNIQFYEGNLILQVYDHTNTVDVTPKENKPNLNSSSSPSNNNSTQDNSKIQQPSEPNSGVANTGANTANKKASFKRPRVYRTLLKPNDLTTYYDMMSYADNARFSDSIYQQFESEILTLTKRNLSLSVPLNPYEHRDMLEETAFSEPHWDSEKKSFIHEHRAESTREGTKGVVGHIEERDEFPQHSSNYEQLMLIMNERTTTITNSTFAVSLTKNAMEIASSSSNGVRGASSSTSNSASNTRNNSLANGNQVALAAAAAAAAVGSTMGNDNNQFSRLKFIEQWRINKEKRKQQALSANINPTPFNARISMTAPLTPQQQLLQRQQQALEQQQNGGAMKNANKRSGNNATSNNNNNNNNLDKPKVKRPRKNAKKSESGTPAPKKKRMTKKKQSASSTPSSTTMS
notes: Spt20, S. cerevisiae, full length band in the TAP-Ada2 purification; source: endogenous, S. cerevisiae lysate
For the molecule B1, in the assay with TAP-tagged Ada2, the “fold decrease of full length Spt20 in the TAP-Ada2 pull down, tra1 Q3 strain against the wild-type strain” value was 2.1 fold.
